The target in one assay is IL-2 (Homo sapiens) (UniProt P60568). Conditions: cited from earlier work.
A further assay addresses IL-15 (Homo sapiens) (UniProt P40933). Conditions: cited from earlier work.
Assay [1] addresses trimeric IL-15Rα/IL-2Rβ/γc receptor on Kit225 cells (human (endogenous in Kit225)) (UniProt Q13261).

A value given as a limit tells only on which side of the number the result lay.

Sequence of UniProt P40933 (P40933 49-162): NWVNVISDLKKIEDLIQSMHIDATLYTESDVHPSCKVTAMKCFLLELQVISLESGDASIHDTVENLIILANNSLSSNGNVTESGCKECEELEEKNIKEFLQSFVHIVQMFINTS
Sequence of UniProt P60568 (P60568 21-153): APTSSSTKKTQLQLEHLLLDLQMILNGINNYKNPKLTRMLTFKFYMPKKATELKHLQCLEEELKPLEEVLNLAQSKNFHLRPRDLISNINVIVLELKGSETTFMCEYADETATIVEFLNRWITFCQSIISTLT

One may read the Kd as the equilibrium constant for the complex coming apart. Regarding IL-2Rα (from UniProt P01589), in the assay with IL-2 (Homo sapiens), the Kd was 10 nM.

Take IL-15Rα (from UniProt Q13261): in the assay with IL-15 (Homo sapiens), the equilibrium dissociation constant (Kd) was 0.05 nM.

Regarding “NANTIL-15 (New ANTagonist of IL-15), human IL-15 L45D-N65K-L69R linked to a human Fc (IgG1) (Fc fusion)”, in assay [1], the IC50 of inhibition of IL-15- or IL-15D8S-induced Kit225 cell proliferation by increasing NANTIL-15 was less than 1 nM, the IC50 of inhibition of IL-15-induced Stat5 phosphorylation in Kit225 cells by increasing NANTIL-15 (blocks IL-15 acting through the trimeric IL-15Rα/IL-2Rβ/γc receptor) amounted to 1 nM, the IC50 of inhibition of IL-15D8S-induced pStat5 signal in Kit225 cells by increasing NANTIL-15 (IL-15D8S signals only through the trimeric receptor) came to 0.001 µM and the plateau of inhibition of IL-15-induced Stat5 phosphorylation in Kit225 cells by increasing NANTIL-15 was found to be 60%.

Values taken from paper PMC9110858.
